Assays:
[1] = target: T1, GST-GUK, fusion protein of GST and the GUK domain of SAP102 (Rattus norvegicus (Rat), UniProt Q62936); assay: GST pulldown
T1 chain: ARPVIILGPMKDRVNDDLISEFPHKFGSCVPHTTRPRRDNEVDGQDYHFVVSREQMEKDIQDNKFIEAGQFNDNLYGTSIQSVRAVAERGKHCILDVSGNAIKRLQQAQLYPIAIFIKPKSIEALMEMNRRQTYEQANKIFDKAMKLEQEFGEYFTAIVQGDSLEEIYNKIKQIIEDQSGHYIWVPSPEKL

[2] = target: T2, GST-SH3, fusion protein of GST and the SH3 domain of SAP102 (Rattus norvegicus (Rat), UniProt Q62936); assay: GST pulldown / amylose pulldown
T2 chain: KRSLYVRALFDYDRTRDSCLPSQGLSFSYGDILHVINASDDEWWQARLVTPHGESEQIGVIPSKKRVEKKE

[3] = target: T3, GST-SH3-GUK, fusion protein of GST and the combined SH3-GUK domain of SAP102 (Rattus norvegicus (Rat), UniProt Q62936); assay: GST pulldown / amylose pulldown
T3 chain: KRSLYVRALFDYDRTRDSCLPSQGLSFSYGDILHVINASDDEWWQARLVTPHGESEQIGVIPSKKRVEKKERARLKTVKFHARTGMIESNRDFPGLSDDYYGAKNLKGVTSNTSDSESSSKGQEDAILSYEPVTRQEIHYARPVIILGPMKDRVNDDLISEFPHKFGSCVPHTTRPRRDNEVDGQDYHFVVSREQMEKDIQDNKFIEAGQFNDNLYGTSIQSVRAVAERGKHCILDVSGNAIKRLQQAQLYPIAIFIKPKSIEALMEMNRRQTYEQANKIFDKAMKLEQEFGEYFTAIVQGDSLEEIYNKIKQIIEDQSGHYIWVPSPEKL

Measured: binding result

B1: MBP-A2A-CT, fusion protein comprising maltose-binding protein and the carboxyl terminus of the A2A receptor (protein)
chain: RIREFRQTFRKIIRSHVLRQQEPFKAAGTSARVLAAHGSDGEQVSLRLNGHPPGVWANGSAPHPERRPNGYALGLVSGGSAQESQGNTGLPDVELLSHELKGVCPEPPGLDDPLAQDGAGVS
binds: all assays above

From publication PMC3979375 (2014)
